Assay [1] deals with T1, anchored ILT2 D2 domain protein (human).
T1 construct: on CHO cells; the entry includes leader remnant, V5 tag and CD24 GPI anchor signal
The assay is described as follows: flow cytometry, CHO cells with anchored ILT2 domain proteins.

The target in assay [2] is T2, anchored ILT2 D4 domain protein (human, UniProt Q8NHL6 322-650).
T2 construct: on CHO cells; the entry includes leader remnant, V5 tag, and the ILT2 transmembrane and cytoplasmic parts
The assay is described as above.

The target in assay [3] is T3, human ILT2 on primary NK cells (human, UniProt Q8NHL6 24-650).
T3 construct: whole, on cells
In words: flow cytometry, primary NK cells.

In another assay the target is T4, ILT2 mutant 4-2 (human, UniProt Q8NHL6 24-650).
T4 construct: transfected in HEK293T cells
In words: flow cytometry titration on HEK293T cells transfected with ILT2 mutant 4-2. A general note: Flow cytometry measures light scatter and fluorescence of single cells or particles in a stream.

The next assay concerns the target T5, Mutant D4-1B.
T5 construct: read as S304F; also called ILT2 mutant 4-1b; mutant 4-1b
The assay is described as follows: flow cytometry titration on HEK293T cells transfected with ILT2 mutant 4-1b.

In assay [4] the target is T6, human ILT2 (LILRB1) expressed at the surface of transfected cells (human, UniProt Q8NHL6 24-650).
T6 construct: also called CHO-ILT2; CHO ILT2 cell line
The assay is described as follows: flow cytometry titration on HEK293T cells transfected with wild-type ILT2.

For the next assay, the target named is T7, Mutant D4-4.
T7 construct: also called ILT2 mutant 4-4; mutant 4-4
In words: flow cytometry titration on HEK293T cells transfected with ILT2 mutant 4-4.

Assay [5] deals with T8, anchored ILT2 D3 domain protein (human).
T8 construct: on CHO cells; the entry includes leader remnant, V5 tag and CD24 GPI anchor signal
The assay is described as follows: flow cytometry on CHO cells expressing the anchored ILT2 D3 domain protein (SEQ ID NO: 48); stacked histograms, axis without numbers, no control histogram.

Assay [6] deals with T9, ILT-2_6xHis recombinant protein (human, UniProt Q8NHL6 24-458).
T9 construct: monomers purified by SEC; also called recombinant 6xHIS tagged ILT2; recombinant human ILT2 proteins
The assay is described as follows: SPR, antibody captured on Protein-A, soluble ILT2 analyte. Here is the method:
Measurements were performed on a Biacore T200 apparatus (Biacore GE Healthcare) at 25° C. In all Biacore experiments HBS-EP+(Biacore GE Healthcare) and NaOH 10 mM served as running buffer and regeneration buffer respectively. Sensorgrams were analyzed with Biacore T100 Evaluation software. Protein-A was purchased from (GE Healthcare). Human ILT2 recombinant proteins were cloned, produced and purified at Innate Pharma. Protein-A proteins were immobilized covalently to carboxyl groups in the dextran layer on a Sensor Chip CM5. The chip surface was activated with EDC/NHS (N-ethyl-N′-(3-dimethylaminopropyl) carbodiimidehydrochloride and N-hydroxysuccinimide (Biacore GE Healthcare)). Protein-A was diluted to 10 μg/ml in coupling buffer (10 mM acetate, pH 5.6) and injected until the appropriate immobilization level was reached (i.e. 600 RU). Deactivation of the remaining activated groups was performed using 100 mM ethanolamine pH 8 (Biacore GE Healthcare). […] For blank subtraction, cycles were performed again replacing ILT2 proteins with running buffer. The monovalent affinity analysis was conducted following a regular Capture-Kinetic protocol as recommended by the manufacturer (Biacore GE Healthcare kinetic wizard). Seven serial dilutions of human ILT2 proteins, ranging from 1.95 nM to 250 nM were sequentially injected over the captured antibodies and allowed to dissociate for 10 min before regeneration. The entire sensorgram sets were fitted using the 1:1 kinetic binding model or two state reaction model, as a function of the profile of the curves.
A general note: In SPR one partner is held on a chip, and binding of the other changes the refractive index at the surface.

The target in another assay is T10, ILT2 mutant 4-1 (human, UniProt Q8NHL6 24-650).
T10 construct: transfected in HEK293T cells
The assay is described as follows: flow cytometry titration on HEK293T cells transfected with ILT2 mutant 4-1.

Assay [7] has as its target T11, anchored ILT2 D1-D2-D3 domain protein (human, UniProt Q8NHL6 24-321).
T11 construct: on CHO cells; the entry includes leader remnant, V5 tag and CD24 GPI anchor signal
In words: flow cytometry, CHO cells with anchored ILT2 domain proteins.

Assay [8] addresses T12, anchored ILT2 D2-D3 domain protein (human, UniProt Q8NHL6 122-321).
T12 construct: on CHO cells; the entry includes leader remnant, V5 tag and CD24 GPI anchor signal
Described as above.

Assay [9] addresses T13, anchored ILT2 D1-D2 domain protein (human, UniProt Q8NHL6 24-222).
T13 construct: on CHO cells; the entry includes leader remnant, V5 tag and CD24 GPI anchor signal
The assay is described as above.

Assay [10] has as its target T14, human ILT1 (LILRA2) on CHO cells (human, UniProt Q8N149 24-475).
T14 construct: also called CHO ILT1 cell line
In words: flow cytometry, CHO transfectants.

Assay [11] addresses T15, human ILT7 (LILRA4) on CHO cells (human, UniProt P59901 28-494).
T15 construct: also called CHO ILT7 cell line
The assay is described as follows: flow cytometry, CHO transfectants.

Assay [12] concerns the target T16, human ILT5 (LILRB3) on CHO cells (human, UniProt O75022 24-626).
T16 construct: also called CHO ILT5 cell line
The assay is described as follows: flow cytometry, CHO transfectants.

Assay [13] deals with T17, human ILT8 (LILRA6) on CHO cells (human, UniProt Q6PI73 24-477).
T17 construct: also called CHO ILT8 cell line
In words: flow cytometry, CHO transfectants.

The target in assay [14] is T18, human ILT4 (LILRB2) on CHO cells (human, UniProt Q8N423 23-597).
T18 construct: also called CHO ILT4 cell line
In words: flow cytometry, CHO transfectants.

Assay [15] has as its target T19, human ILT3 (LILRB4) on CHO cells (human, UniProt Q8NHJ6 24-443).
T19 construct: also called CHO ILT3 cell line
In words: flow cytometry, CHO transfectants.

Assay [16] concerns the target T20, human ILT6 (LILRA3) on CHO cells (human, UniProt Q8N6C8 24-434).
T20 construct: also called CHO ILT6 cell line; human ILT-6 polypeptide
In words: flow cytometry, CHO transfectants.

Assay [17] deals with T6, human ILT2 (LILRB1) expressed at the …. In words: flow cytometry, CHO-ILT2 cells. Here is the method: Cells were incubated with various concentrations of unlabeled anti-ILT2 antibodies from 30 μg/ml to 5×10-⁴ μg/ml, for 30 minutes at 4° C. After washes with staining buffer, cells were incubated for 30 min at 4° C. with Goat anti-human H+L AF488 secondary antibody (Jackson Immunoresearch #109-546-088) or Goat anti-mouse H+L AF488 secondary antibody for commercially available antibodies (Jackson Immuoresearch #115-545-146). Fluorescence was measured on an Accury C6 flow cytometer equipped with an HTFC plate loader.

For assay [18], the target named is T3, human ILT2 on primary NK cells. In words: cell-based or functional assay.
Assay [19] has as its target T21, anchored ILT2 D1 domain protein (human).
T21 construct: on CHO cells; the entry includes leader remnant, V5 tag and CD24 GPI anchor signal
The assay is described as follows: flow cytometry on CHO cells expressing the anchored ILT2 D1 domain protein (SEQ ID NO: 46); stacked histograms, axis without numbers.

We go through five molecules from patent US20220025056A1 (INNATE PHARMA, published 2022).

Changes are numbered by the printed parent chain.

T1 sequence (chain, as listed by the source limits assumed): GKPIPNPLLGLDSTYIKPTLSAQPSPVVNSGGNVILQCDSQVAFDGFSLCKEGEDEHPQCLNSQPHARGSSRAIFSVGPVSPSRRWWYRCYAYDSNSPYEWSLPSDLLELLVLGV
T2 sequence (Q8NHL6 other isoform, or with tags, fused parts or gaps limits assumed): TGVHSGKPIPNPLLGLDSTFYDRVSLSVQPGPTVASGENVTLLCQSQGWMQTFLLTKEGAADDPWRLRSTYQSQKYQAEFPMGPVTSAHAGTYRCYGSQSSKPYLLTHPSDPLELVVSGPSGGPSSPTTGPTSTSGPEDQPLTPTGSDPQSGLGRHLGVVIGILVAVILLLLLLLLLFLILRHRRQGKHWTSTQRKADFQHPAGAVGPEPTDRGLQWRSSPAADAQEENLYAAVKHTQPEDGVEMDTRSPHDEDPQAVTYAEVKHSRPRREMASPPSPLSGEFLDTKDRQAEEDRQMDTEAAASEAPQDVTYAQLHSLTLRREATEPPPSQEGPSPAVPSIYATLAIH
T9 sequence (Q8NHL6 other isoform, or with tags, fused parts or gaps limits assumed): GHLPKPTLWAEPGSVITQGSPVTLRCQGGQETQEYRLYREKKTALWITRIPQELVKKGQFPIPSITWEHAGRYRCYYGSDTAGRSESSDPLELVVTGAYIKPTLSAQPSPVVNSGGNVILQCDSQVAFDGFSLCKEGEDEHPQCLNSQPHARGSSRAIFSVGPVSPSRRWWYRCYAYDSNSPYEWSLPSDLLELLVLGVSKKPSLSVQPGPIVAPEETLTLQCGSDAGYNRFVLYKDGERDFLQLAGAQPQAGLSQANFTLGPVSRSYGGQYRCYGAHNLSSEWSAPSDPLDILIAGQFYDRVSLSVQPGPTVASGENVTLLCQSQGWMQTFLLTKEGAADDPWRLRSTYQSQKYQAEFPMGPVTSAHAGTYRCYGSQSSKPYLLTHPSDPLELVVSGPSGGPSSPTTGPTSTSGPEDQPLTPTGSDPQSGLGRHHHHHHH
T6 sequence (Q8NHL6 24-650): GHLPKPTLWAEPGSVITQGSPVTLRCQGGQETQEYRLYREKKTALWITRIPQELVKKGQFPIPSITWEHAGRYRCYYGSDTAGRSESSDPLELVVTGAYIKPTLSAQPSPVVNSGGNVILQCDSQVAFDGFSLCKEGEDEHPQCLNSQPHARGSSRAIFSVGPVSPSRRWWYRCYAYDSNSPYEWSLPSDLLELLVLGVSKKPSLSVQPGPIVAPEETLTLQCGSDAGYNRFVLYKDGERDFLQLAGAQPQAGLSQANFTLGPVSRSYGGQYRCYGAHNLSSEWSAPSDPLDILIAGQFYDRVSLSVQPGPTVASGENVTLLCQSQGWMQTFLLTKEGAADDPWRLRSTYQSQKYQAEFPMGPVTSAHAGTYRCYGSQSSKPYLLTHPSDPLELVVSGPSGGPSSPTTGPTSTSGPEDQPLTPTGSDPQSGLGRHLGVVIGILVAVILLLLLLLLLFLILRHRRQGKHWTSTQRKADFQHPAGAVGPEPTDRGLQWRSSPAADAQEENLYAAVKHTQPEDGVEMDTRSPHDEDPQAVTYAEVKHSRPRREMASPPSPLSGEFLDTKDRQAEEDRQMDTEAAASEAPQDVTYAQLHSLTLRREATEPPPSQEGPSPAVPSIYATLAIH
T3 sequence (Q8NHL6 24-650): as above
T13 sequence (Q8NHL6 other isoform, or with tags, fused parts or gaps limits assumed): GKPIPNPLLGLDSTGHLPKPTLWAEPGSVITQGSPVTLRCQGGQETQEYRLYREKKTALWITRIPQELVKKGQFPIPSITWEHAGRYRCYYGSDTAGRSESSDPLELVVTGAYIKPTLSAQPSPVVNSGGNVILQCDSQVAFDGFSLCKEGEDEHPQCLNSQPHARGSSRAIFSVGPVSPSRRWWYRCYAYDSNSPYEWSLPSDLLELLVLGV
T5 sequence (receptor chain, as listed by the source mutant): as the sequence (Q8NHL6 24-650) above, with Y300R, D301A, R302A, S304F, H387A, D390A counted along it
T15 sequence (P59901 other isoform, or with tags, fused parts or gaps): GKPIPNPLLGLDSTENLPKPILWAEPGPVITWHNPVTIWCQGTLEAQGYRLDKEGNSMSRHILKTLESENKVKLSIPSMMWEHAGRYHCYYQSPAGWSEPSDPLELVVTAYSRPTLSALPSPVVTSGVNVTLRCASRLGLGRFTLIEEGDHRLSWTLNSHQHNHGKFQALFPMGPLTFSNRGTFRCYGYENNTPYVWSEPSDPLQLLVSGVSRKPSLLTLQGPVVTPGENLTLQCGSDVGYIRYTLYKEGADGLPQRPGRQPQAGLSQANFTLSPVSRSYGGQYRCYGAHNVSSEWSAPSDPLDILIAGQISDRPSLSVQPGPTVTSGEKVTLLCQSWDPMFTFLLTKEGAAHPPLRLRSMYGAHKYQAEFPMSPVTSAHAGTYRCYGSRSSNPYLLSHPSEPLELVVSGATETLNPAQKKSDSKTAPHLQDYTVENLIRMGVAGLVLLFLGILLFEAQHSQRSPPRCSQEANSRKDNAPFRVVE
T20 sequence (Q8N6C8 other isoform, or with tags, fused parts or gaps): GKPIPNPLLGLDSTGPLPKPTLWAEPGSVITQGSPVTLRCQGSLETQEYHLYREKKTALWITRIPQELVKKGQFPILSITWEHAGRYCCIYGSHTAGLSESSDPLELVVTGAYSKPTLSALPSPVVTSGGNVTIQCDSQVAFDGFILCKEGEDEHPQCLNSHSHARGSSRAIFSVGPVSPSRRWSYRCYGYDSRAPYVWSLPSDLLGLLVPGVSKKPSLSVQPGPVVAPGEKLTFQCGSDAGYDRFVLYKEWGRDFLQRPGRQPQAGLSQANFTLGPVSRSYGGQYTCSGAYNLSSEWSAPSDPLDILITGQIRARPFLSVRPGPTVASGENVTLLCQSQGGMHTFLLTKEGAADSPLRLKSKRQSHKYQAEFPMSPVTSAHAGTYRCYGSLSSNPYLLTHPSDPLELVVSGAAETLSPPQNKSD
T12 sequence (Q8NHL6 other isoform, or with tags, fused parts or gaps limits assumed): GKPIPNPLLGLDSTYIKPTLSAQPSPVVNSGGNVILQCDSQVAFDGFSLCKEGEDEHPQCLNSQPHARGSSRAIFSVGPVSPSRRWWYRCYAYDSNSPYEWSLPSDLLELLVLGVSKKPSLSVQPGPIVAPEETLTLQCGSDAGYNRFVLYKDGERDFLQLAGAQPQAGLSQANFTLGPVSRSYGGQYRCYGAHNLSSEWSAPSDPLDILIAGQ
T7 sequence (receptor chain, as listed by the source mutant): as the sequence (Q8NHL6 24-650) above, with Q308A, P309G, N318A, T320A, E358S, G362S counted along it
T8 sequence (chain, as listed by the source limits assumed): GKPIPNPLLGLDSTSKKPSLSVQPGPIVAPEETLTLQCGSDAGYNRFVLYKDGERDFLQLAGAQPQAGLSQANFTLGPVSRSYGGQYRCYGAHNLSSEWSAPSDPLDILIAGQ

B1: 1A9 (antibody, human IgG1, V domains shown)
VH: EVKLQQSGPDLVKPGASVKISCKASGYSFTNFYIHWVKQRPGQGLEWIGWIFPGNGETNYSEKFKGKATLTADTSSSTAYMQFNSLTYEDSAVYFCARTWNYDARWGYWGQGTTLTVSS
VL: DVVMTQTPASLAVSLGQRATISCRASDGIDSYGISFMRWYQQKPGQPPTLLIYRASTLESGIPARFSGSGSRTNFTLTINPVEADDVATYYCQQTNEDPFTFGSGTKLEIK
B1: the binding result in assay [1] and in assay [2] was “no binding” each time.

B2: 1E4C (antibody, human IgG1, V domains shown)
VH: QRELQQSGPELVKPGASVNISCKASGYSFTNHYINWVKQRPGQGLEWIGWIFPGNGDTNYNEKFKGKATLTADTSSSTAYMQLSSLTSEDSAVYFCARTWNYDARWGYWGQGTTVTVSS
VL: B1 VL with S10F, D27E, G28S, R38H, T49K, L50V, A55T, T57N, N74D, T95S
As to B2, the binding result in assay [1] and in assay [2] was “no binding” each time.

B3: 3A7A (antibody, human IgG1, V domains shown)
VH: QVQLKESGPELVKPGTSVKISCKASGYNFRNYYIQWVKQRPGQGLEWIGWIFPGNNETNYNEKFKGKATLSADTSSTTAYMQLSSLTSEDSAVYFCARSWNYDARWGYWGQGTTVTVSS
VL: DVVMTQTPASLAVSLGQRATISCRASEIIDNYGISFIHWYQQKPGQPPKLLIYRASNLESGIPARFSGSGSRTDSTLTINPVGADDVATYYCQQSNEDPFTFGSGTKLELK
For B3, the binding result in [1] and in assay [2] was “no binding” throughout.

B4: 26D8 (antibody, human IgG1, V domains shown)
VH: QVQLQQSGAELVKPGASVKLSCKASGYTFTEHTIHWIKQRSGQGLEWIGWFYPGSGSMKYNEKFKDKATLTADKSSSTVYMELTRLTSEDSAVYFCARHTNWDFDYWGQGTTLTVSS
VL: DIVLTQSPASLAVSLGQRATISCKASQSVDYGGDSYMNWYQQKPGQPPKLLIYAASNLESGIPARFSGSGSGTDLTLNIHPVEEDDAAMYYCQQSNEEPWTFGGGTKLEIK
One may read the EC50 as the midpoint of the concentration-response curve. A higher EC50 goes with weaker potency. As usually defined, the EC50 (read off the curve) is the concentration that produces a half-maximal response. By Kd is commonly meant the concentration at which binding is half-saturated. One may read the koff as the first-order rate constant of dissociation. By kon is commonly meant the rate constant with which the complex forms. Take B4: the values for the EC50 in [3] and in [17] were 0.11 mg/L and 0.15 mg/L, respectively. Further, the binding result is listed as “no binding (tested: about 20 µg/ml)” with ILT2 mutant 4-2; “binds” with Mutant D4-1B; “no binding” in assay [5]; “no binding (tested: about 20 µg/ml)” with ILT2 mutant 4-1; “no binding” in assay [7]; “no binding” in assay [8]. The binding result in assay [1], in assay [9], in [10], in assay [11], in assay [12] and in assay [13] was “no binding” each time. The binding result in assay [14], in assay [15], in assay [16] and in assay [19] was “no binding” throughout. Also, the “EC50 (read off the curve)” value in assay [4] was ~0.3 mg/L; in the assay with Mutant D4-4 it was ~0.2 mg/L. The Kd in assay [6] is 0.4 nM. Also, the koff in assay [6] was 0.00022 s⁻¹. Moreover, the kon in assay [6] came out at 620000 M⁻¹ s⁻¹. In addition, in assay [18], the “CD137 expression on ILT2-positive primary NK cells” value was found to be 2 fold. Further, the “CD137 expression on NK cells of urothelial cancer patients with HLA-A2-expressing B cells” value in assay [18] was > 2 fold.

B5: 27C10 (antibody, human IgG1, V domains shown)
VH: EVQLQESGPGLVKPSQSLSLTCSVTGYSITSGYYWNWIRQFPENKLEWMGYIRYDGSNNYNPSLNNRISITRDASKNQFFLKLNSVTTEDTATYYCARGWLLWFYAVDYWGQGTSVTVSS
VL: DVVMTQTPLSLPVSLGDQASISCRSSQSIVHTNGNTYLEWYLQKSGQSPKLLIYKVSNRLSGVPDRFSGSGSGTDFTLKISRVEAEDLGIYYCFQGSHVPWTFGGGTKLEIK
As for B5, the EC50 in [3] came to 0.33 mg/L; in assay [17], 0.25 mg/L. Further, the binding result is given as “binds” with ILT2 mutant 4-2; “binds” with Mutant D4-1B; “binds” with Mutant D4-4; “no binding” in assay [5]; “no binding” in assay [7]; “no binding” in [8]. In addition, the binding result in assay [1], in assay [9], in assay [10], in [11], in assay [12] and in [13] was “no binding” in each case. Further, the binding result in assay [14], in [15], in assay [16] and in [19] was “no binding” in each case. The koff in assay [6] worked out at 0.0003 s⁻¹. Also, in the assay with ILT2 mutant 4-1, the half-maximal effective concentration (EC50 (read off the curve)) is ~0.4 mg/L.
